# According to IntAct's records for PubMed 18007658:
# B1: Protein SLY1 (Saccharomyces cerevisiae), P22213 (parent)
# chain: MAVEEIASRKDISLRDMQISAILKMLFLNKDLNNNDNITTITDDIFNQQEIIWKVLILDIKSTATISSVLRVNDLLKAGITVHSLIKQDRSPLPDVPAIYFVSPTKENIDIIVNDLKSDKYSEFYINFTSSLPRNLLEDLAQQVSITGKSDKIKQVYDQYLDFIVTEPELFSLEISNAYLTLNDPKTTEEEITGLCANIADGLFNTVLTINSIPIIRAAKGGPAEIIAEKLGTKLRDFVINTNSSSTSTLQGNDSLERGVLIILDRNIDFASMFSHSWIYQCMVFDIFKLSRNTVTIPLESKENGTDNTTAKPLATKKYDIEPNDFFWMENSHLPFPEAAENVEAALNTYKEEAAEITRKTGVTNISDLDPNSNNDTVQIQEVVKKLPELTAKKNTIDTHMNIFAALLSQLESKSLDTFFEVEQDPGSTKTRSRFLDILKDGKTNNLEDKLRSFIVLYLTSTTGLPKDFVQNVENYFKENDYDINALKYVYKLREFMQLSNMSLQNKSLEDGSDSAFKPSNLTLSGIYGLTEGKLQGGVGSLISGIKKLLPEKKTIPITNVVDAIMDPLNSSQKNLETTDSYLYIDPKITRGSHTRKPKRQSYNKSLVFVVGGGNYLEYQNLQEWAHSQLHNPKKVMYGSTAITTPAEFLNEISRLGASNSSNNDA
# partner: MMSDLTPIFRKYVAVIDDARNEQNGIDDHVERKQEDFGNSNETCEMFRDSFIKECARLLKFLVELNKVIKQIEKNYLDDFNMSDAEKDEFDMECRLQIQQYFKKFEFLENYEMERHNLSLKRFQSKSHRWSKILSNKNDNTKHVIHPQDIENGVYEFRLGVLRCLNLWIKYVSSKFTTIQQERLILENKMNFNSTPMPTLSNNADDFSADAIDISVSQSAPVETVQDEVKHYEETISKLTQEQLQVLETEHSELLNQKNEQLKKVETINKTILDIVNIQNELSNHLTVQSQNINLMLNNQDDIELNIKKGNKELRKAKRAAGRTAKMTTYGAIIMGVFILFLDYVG
# B2: Syntaxin UFE1 (Saccharomyces cerevisiae), P41834 (parent)
# chain: B1 partner
# partner: B1 chain
# Variants of: B1
# Conditions: with ufe1_yeast UFE1, P41834
row,Variant,effect of a mutation on the interaction
1,L137R,disrupting interaction

# Variants of: B1
# Conditions: with ufe1_yeast UFE1, P41834
# Remark: another data set of the same source
row,Variant,effect of a mutation on the interaction
1,L137R,decreasing interaction

# Variants of: B2
# Conditions: with sly1_yeast SLY1, P22213
row,Variant,effect of a mutation on the interaction
1,MMSDLTPIARKYVAVIDDARNEQNGIDDHVERKQEDFGNSNETCEMFRDSFIKECARLLKFLVELNKVIKQIEKNYLDDFNMSDAEKDEFDMECRLQIQQYFKKFEFLENYEMERHNLSLKRFQSKSHRWSKILSNKNDNTKHVIHPQDIENGVYEFRLGVLRCLNLWIKYVSSKFTTIQQERLILENKMNFNSTPMPTLSNNADDFSADAIDISVSQSAPVETVQDEVKHYEETISKLTQEQLQVLETEHSELLNQKNEQLKKVETINKTILDIVNIQNELSNHLTVQSQNINLMLNNQDDIELNIKKGNKELRKAKRAAGRTAKMTTYGAIIMGVFILFLDYVG [F9A],disrupting interaction
